Assay results as given in patent US20080044414A1 (published 2008).
Numbering of substitutions follows the chain as printed. Values joined by “and” are separate entries in the source; they are usually repeats but may differ in a detail not shown here. Equal entries are not always repeated. Where two headings read alike, the source gives them in different places.

B1: AB5 (antibody, V domains shown)
VH: QVTLKESGPGILKPSQTLSLTCSFSGFSLSTSGMGVGWIRQPSGKGLEWLAHIWWDGDESYNPSLKTQLTISKDTSRNQVFLKITSVDTVDTATYFCARNRYDPPWFVDWGQGTLVTVSS
VL: DIQMTQTTSSLSASLGDRVTISCRASQDISNYLSWYQQKPDGTVKLLIYYTSKLHSGVPSRFSGSGSGTDYSLTISNLEQEDIATYFCLQGKMLPWTFGGGTKLEIK
notes: also called AB5 (invention)
B2: AB2 (antibody, V domains shown)
VH: B1 VH with N100V
VL: B1 VL
B3: AB3 (antibody, V domains shown)
VH: B1 VH with N100F
VL: B1 VL
B4: AB-control (antibody, V domains shown)
VH: B1 VH with Q68R, D74N, S86T
VL: B1 VL with S72F
notes: must be checked against the listing
B5: AB1 (antibody, V domains shown)
VH: B1 VH with N100A
VL: B1 VL
notes: also called AB1 (invention)
B6: AB7 (antibody, V domains shown)
VH: QVQLQESGPGLVKPSQTLSLTCSFSGFSLSTSGMGVGWIRQPSGKGLEWLAHIWWDGDESYNPSLKSRLTISKDTSKNQVSLKITSVTAADTAVYFCARNRYDPPWFVDWGQGTLVTVSS
VL: DIQMTQSTSSLSASVGDRVTITCRASQDISNYLSWYQQKPGKAVKLLIYYTSKLHSGVPSRFSGSGSGTDYTLTISSLQQEDFATYFCLQGKMLPWTFGQGTKLEIK
notes: Human engineered antibody

How the values were obtained:
human IL-1β [1] = target: T1, human IL-1β (human, UniProt P01584 117-269); test: cell-based or functional assay
human IL-1β [2] = target: T1, human IL-1β; test: KinExA kinetic exclusion assay
Text: The KINEXA™ device performs a kinetic exclusion assay, and fits the data to various theoretical curves and thus determines KD as well as other properties, such as 95% confidence intervals for KD. The KINEXA™ device is generally more sensitive than other devices (e.g., a BiaCore device) for analysis of affinity characteristics such as dissociation constants and off-rates.

human IL-1β [3] = target: T1, human IL-1β; test: cell-based or functional assay; remark: listed apart in the source
human IL-1β [4] = target: T1, human IL-1β; test: KinExA kinetic exclusion assay; remark: listed apart in the source
Protocol: KD values represent the binding dissociation constants for the respective antibody-IL-1β complexes. KD was calculated as the ratio of “off rate” (rate of dissociation for the antibody-IL-1β complex) to “on rate” (rate of association for the antibody-IL-1β complex).

human IL-1β [5] = target: T1, human IL-1β; test: cell-based or functional assay; remark: listed apart in the source
guinea pig IL-1β = target: T2, guinea pig IL-1β (guinea pig, UniProt Q9WVG1 115-266, limits assumed); test: immunoprecipitation with AB7 and protein A-Sepharose from PBMC supernatant, Western blot with AB7
T2 sequence (looked up): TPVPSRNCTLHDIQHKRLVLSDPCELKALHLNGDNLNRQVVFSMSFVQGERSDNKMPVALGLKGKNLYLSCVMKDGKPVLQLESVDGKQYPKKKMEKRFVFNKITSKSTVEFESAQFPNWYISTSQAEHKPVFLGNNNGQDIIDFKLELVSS
Protocol: (§1) Fresh heparanized whole blood from rhesus macaque, cynomolgus monkey, dog, guinea pig and rabbit was obtained from Charles River Labs. The whole blood was separated by Ficoll density gradient centrifugation and peripheral blood mononuclear cells (PBMC's) were isolated. For each species' PBMC, 2.5×10⁵ cells/ml were incubated in peripheral RPMI media with and without 50 ng/ml Lipopolysaccharide LPS (E. Coli 055:B5), and supernatants were collected at 24 hours post-stimulation. LPS is intended to stimulate the production of IL-1β by the PBMC's. […] Human IL-1β (Peprotech) was spiked into RPMI and run as immunoprecipliation/Western blot controls. After centrifugation and washing of the Protein A-Sepharose beads, all samples were loaded onto a SDS-PAGE gel and run at 120V for 1 hour. […] A secondary goat anti-human IgG antibody conjugated with horseradish peroxidase (HRP) was added following wash steps and detection was with one step tetramethyl benzidine (TMB) solution.

rhesus macaque IL-1β = target: T3, rhesus macaque IL-1β (rhesus macaque, UniProt P48090 117-269); test: cell-based or functional assay
T3 sequence (looked up): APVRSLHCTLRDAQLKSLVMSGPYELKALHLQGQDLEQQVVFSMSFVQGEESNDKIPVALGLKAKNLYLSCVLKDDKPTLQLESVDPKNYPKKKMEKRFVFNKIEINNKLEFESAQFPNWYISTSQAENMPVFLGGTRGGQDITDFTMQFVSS

[6] = target: T4, soluble IL-1 receptor type I (IL-1 sRI) (UniProt P14778 18-336); test: Biacore, AB7 immobilized on CM-5 chip, IL-1 sRI injected
T4 construct: extracellular domain; also called IL-1RI
T4 sequence (looked up): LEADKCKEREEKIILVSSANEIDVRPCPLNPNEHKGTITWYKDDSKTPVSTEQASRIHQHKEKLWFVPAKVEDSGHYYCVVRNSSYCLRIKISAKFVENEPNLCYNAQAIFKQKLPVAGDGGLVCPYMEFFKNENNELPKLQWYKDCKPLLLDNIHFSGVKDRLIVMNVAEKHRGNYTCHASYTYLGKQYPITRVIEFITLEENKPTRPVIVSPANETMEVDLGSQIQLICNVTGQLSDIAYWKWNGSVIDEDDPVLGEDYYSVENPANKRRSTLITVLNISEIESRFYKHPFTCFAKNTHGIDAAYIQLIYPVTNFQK
Protocol: Using HBS-EP (Biacore®, Inc.) as running buffer, the temperature was set to 25° C., the flow rate was set to 10 μL/min, and the flow path was directed to flow cell 2 only. 135 μL of each of NHS and ECD solutions (Biacore®, Inc.) were mixed, and 70 μL of the NHS/ECD solution was immediately injected in the flow path. […] To prepare a reference surface, the flow path was changed to flow cell 1 only. 135 μL of each of NHS and ECD solutions (Biacore®, Inc.) were mixed, and 70 μL of the NHS/ECD solution was immediately injected in the flow path, followed by 70 μL 1M Ethanolamine (Biacore®, Inc.).
The flow rate was set to 10 μL/min. The flow path for the Biacore® instrument was set to flow cells 1 and 2, and reference subtraction of flowcell 2 from flowcell 1 was used to determine a response differential.

rabbit IL-1β = target: T5, rabbit IL-1β (rabbit, UniProt P14628 117-268); test: immunoprecipitation with AB7 from LPS-stimulated PBMC supernatant, Western blot with AB7 (FIG. 16)
T5 sequence (looked up): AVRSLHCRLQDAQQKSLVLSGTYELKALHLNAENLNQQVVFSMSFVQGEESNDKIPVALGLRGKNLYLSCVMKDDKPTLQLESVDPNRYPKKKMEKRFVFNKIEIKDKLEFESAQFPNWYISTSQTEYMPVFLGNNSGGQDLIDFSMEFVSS
Protocol: as §1

dog IL-1β = target: T6, dog IL-1β (dog, UniProt Q28292 115-266); test: as above
T6 sequence (looked up): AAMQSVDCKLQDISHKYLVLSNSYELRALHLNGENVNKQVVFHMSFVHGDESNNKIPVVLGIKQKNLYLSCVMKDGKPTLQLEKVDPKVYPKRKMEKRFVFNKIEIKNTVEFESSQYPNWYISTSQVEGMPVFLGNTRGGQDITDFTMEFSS
Protocol: as §1

Binder | IC50, inhibition of IL-1β stimulated release of IL-6 from human MRC5 fibroblasts (human IL-1β [1]) | Kd (human IL-1β [4]) | IC50, inhibition of IL-1β stimulated release of IL-6 from human fibroblasts (FIG. 10) (human IL-1β [5]) | IC50 of an individual assay, IL-6 release from human fibroblasts (human IL-1β [5]) | mean IC50, inhibition of IL-1β stimulated release of IL-6 from human fibroblasts (human IL-1β [5]) | further results
B1 | 0.014 nM | 0.261 pM |  |  |  | Kd (human IL-1β [2]): 0.24 pM; IC50, inhibition of IL-1β stimulated release of IL-6 from human fibroblasts (human IL-1β [3]): 4.9 pM
B2 |  |  | 0.076 nM |  |  | 
B3 |  |  | 0.214 nM |  |  | 
B4 | 0.017 nM | 3.06 pM |  | 5 pM and 4.9 pM | 8.9 pM | 
B5 | 0.15 nM | 18.6 pM | 0.029 nM | 35 pM and 30 pM and 52 pM | 66.7 pM | 
B6 |  |  |  |  |  | binding result (guinea pig IL-1β): no binding; mean IC50, inhibition of IL-1β stimulated proliferation of D10.G4.1 cells (10 pg/ml recombinant rhesus IL-1β) (rhesus macaque IL-1β): 2.7 pM; binding result [6]: no binding (tested: 10 ug/mL); binding result (rabbit IL-1β): binds; binding result (dog IL-1β): binds
